Experiments:
[1] = molecular target: human lymphotoxin (TNFβ) (human) (UniProt P01374); assay: cell-based or functional assay
[2] = molecular target: human tumor necrosis factor-α (TNFα) (human) (UniProt P01375); assay: cell-based or functional assay
Sequence of human tumor necrosis factor-α (TNFα) (human) (P01375 77-233): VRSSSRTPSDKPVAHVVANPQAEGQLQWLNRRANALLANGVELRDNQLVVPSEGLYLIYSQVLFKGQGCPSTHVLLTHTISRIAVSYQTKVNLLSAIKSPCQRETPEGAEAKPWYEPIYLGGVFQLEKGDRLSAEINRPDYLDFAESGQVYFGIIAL

Sequence of human lymphotoxin (TNFβ) (human) (P01374 35-205 limits assumed): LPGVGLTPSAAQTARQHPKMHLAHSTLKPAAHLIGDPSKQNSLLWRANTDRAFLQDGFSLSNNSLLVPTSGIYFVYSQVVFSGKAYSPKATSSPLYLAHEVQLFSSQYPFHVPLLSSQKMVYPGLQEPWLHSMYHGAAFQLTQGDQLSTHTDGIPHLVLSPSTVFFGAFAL

p75-sf2 TNF receptor/IgG1 fusion protein (from UniProt P20333 23-257) (Fc fusion)
amount needed for the same degree of inhibition of TNFβ cytotoxicity, against p75P-sf2 (fold against p75P-sf2) [1]: 3

p75P-sf2 TNF receptor/IgG1 fusion protein (from UniProt P20333 23-204) (Fc fusion)
concentration to half-inhibit human TNFβ at 2 pM, WEHI 164 cytotoxicity assay [1]: 31 pM

p55-sf2 TNF receptor/IgG1 fusion protein (from UniProt P19438) (Fc fusion)
amount needed for the same degree of inhibition of TNFβ cytotoxicity, against p75P-sf2 (fold against p75P-sf2) [1]: 3

B1: chimeric mouse/human IgG1 anti-platelet mAb (7E3) (antibody, INN chains, looked up, V domains shown)
VH: EVQLQQSGTVLARPGASVKMSCEASGYTFTNYWMHWVKQRPGQGLEWIGAIYPGNSDTSYIQKFKGKAKLTAVTSTTSVYMELSSLTNEDSAVYYCTLYDGYYVFAYWGQGTLVTVSA
VL: EIVLTQSPVTLSVTPGDSVSLSCRASRDISNNLHWFQQTSHESPRLLIKYASQSMSGIPSRFSGSGSGTDFTLSINSVETEDFGMYFCQQTNSWPYTFGGGTKLEIK
modifications: chimeric IgG1
IL-6 in supernatant of FS-4 fibroblasts (ng/ml), rhTNF 0.3 ng/ml with 4 µg/ml antibody (no antibody: 1.36) [2]: 1.6 ng/mL | IL-6 in supernatant of FS-4 fibroblasts (ng/ml), rhTNF 1.5 ng/ml with 4 µg/ml antibody (no antibody: 2.00) [2]: 1.96 ng/mL | IL-6 in supernatant of FS-4 fibroblasts (ng/ml), rhTNF 7.5 ng/ml with 4 µg/ml antibody (no antibody: 2.56) [2]: 2.16 ng/mL

Source: US20020114805A1
